The target in assay [1] is T1, human ROR1 protein (construct not stated) (human, UniProt Q01973 30-406, limits assumed).
T1 construct: also called hROR1
Description: method not stated (binding affinity; FIG. 12C).

Assay [2] deals with recombinant human ROR1 protein with the mouse amino acid residue at position 138 (human, UniProt Q01973 30-406, limits assumed). Description: immunoblot after non-denaturing PAGE (FIG. 10). The text has this: Constructs depicted in FIG. 6 were used to select high affinity recombinant antibodies. […] Human and chimeric ROR1-ex constructs were transfected into 293 cells. This allowed for production of recombinant human-mouse chimeric ROR1 proteins that could be size separated in a non-denaturing PAGE gel or SDS PAGE gel for immunoblot analysis with different anti-ROR1 mAb. […] The full human extracellular domain is provided on the far left lane of either gel (FIG. 11).

In assay [3] the target is T1, human ROR1 protein (construct not …). Description: method not stated (FIG. 12).

T1 sequence (Q01973 30-406 limits assumed): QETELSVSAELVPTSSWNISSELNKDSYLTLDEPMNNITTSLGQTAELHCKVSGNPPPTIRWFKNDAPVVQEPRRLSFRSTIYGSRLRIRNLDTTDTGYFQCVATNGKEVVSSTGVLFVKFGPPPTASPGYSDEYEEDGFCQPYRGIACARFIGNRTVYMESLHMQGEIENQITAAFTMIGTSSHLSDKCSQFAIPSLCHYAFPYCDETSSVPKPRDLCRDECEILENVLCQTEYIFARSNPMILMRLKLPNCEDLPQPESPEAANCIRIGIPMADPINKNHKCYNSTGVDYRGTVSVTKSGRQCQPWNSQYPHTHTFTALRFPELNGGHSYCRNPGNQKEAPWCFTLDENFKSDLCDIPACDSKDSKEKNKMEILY
Sequence of recombinant human ROR1 protein with the mouse amino acid residue at position 138 (Q01973 30-406 E138K limits assumed): as the sequence (Q01973 30-406 limits assumed) above, with E109K counted along it

B1: anti-ROR1 monoclonal antibody D10 (antibody, V domains shown)
VH: QVQLKESGPGLVAPSQTLSITCTVSGFSLTSYGVHWVRQPPGKGLEWLGVIWAGGFTNYNSALKSRLSISKDNSKSQVLLKMTSLQTDDTAMYYCARRGSSYSMDYWGQGTSVIVSS
VL: EIVLSQSPAITAASLGQKVTITCSASSNVSYIHWYQQRSGTSPRPWIYEISKLASGVPVRFSGSGSGTSYSLTISSMEAEDAAIYYCQQWNYPLITFGSGTKLEIQ
With B1, the Kd in assay [1] turned out to be 41 nM.

B2: anti-human ROR1 antibody 99961 (antibody, V domains shown)
VH: EIQLQQSGPVLVKPGASVKVSCKASGYAFTAYNIHWVRQSHGKRLEWIGSFDPYDGGSSYNQKFKDKATLTVDKSSTTAYMHLNSLTSEDSAVYYCARGWYYFDYWGHGTTLTVSS
VL: DVQITQSPSYLAASPGETITINCRASKSISKYLAWYQEKPGKTNKLLIYSGSTLQSGIPSRFRGSGSGTDFTLTISSLEPEDFAMYYCQQHDESPYTFGEGTKLEIK
notes: also called Ab9991
For B2, the binding result in assay [2] is reported as “no binding”. This molecule also had a Kd in assay [1] of 0.8 nM. Also, in assay [3], the “fold higher binding affinity than D10” value stood at 50 fold.

The record behind these values is patent US20230110249A1 (University of California, published 2023).
